Measurements published in the DeepSol protein solubility set.

Experiment: soluble on expression in E. coli; label from the status in PepcDB or PDB records

Row | Sequence | soluble on expression in E. coli
1 | MNTINANDLKTRGIAAIEAQLEEQPEAIIAVRGKDRYVVMQLEHYYYLRECELTAALAETRADLAAGRCEQESPEAHLARLDTLK | not soluble
2 | MAHHHHHHMKKASKNSNYHGLEKSLRRRGGKIKTIYEKYKDIDFQNIIDEKIKYVWNYINNIDDIISDEEFLKEEIKQKLEKKQSLKKNDDFDEIIYYNKNVKNLINIQKVRKALYHFNIKVDMEDIMHMFLYYTNQDYFLKFIQNNIYSKNYVERKMDKYKFTSININNLYINYEMFKFIFLNIDMNIEQNGQMW | not soluble
3 | MGSDKIHHHHHHMLETYALKNGAVFISDAHFLPKSPHLIHTLKELLSAKPPQVFFMGDIFHVLVGYLPLDKEQQKIIDLIHALSEISQVFYFEGNHDFSMRFVFNSKVMVFERQNQPVLFQYDNKRFLLAHGDLFITKAYEFYITQLTSTWARFFLTFLNLLSFKTLYPLFKKLIYQKPVRLWELEPKELQSFIEKRLKAYQNYIKDLNIGSIDGIIEGHFHLKSGAKIPLNTPIYCPLPSFYYEQSLFKVSSSVLEPSQNKDA | not soluble
4 | MGSDKIHHHHHHMDDTDWIGETFTSTVGWDHLETLVDIGNRMAGSGGERAAAEATRDALAEYTRDARLSEFGIQGWERGDSAVHAGGSPVATQAHECIALPRSPAGEVTGELVDVGHGLPEDFEDADCEGQIVLARSDVPDWYDRYIHRREKYYHAVEAGAAGFIYRNHVDGVLPPTGSVGTADAPIGEIPAIGVASETGARLARRYAGENVTLSVDCETPKATSQNVHAELGPDTDERLLVTSHADAHDIAEGAMDNGAGTAMVVEVARALAGREDELATRVEFVAFGAEEVGLVGSNRLAGETTLDDVTAVLNFDGVVQGRTLKCYTHGFDALTAAAEDVADRLDHPISLTPEQGPHSDHWPFVQRGVPGYHVTSETGGEGRGWGHTHADTLDKLEPRTFREQAVLLTELAVALADDSARPAHKDPAEIANALEAQNLAEGMRITGDWPFGD | not soluble
5 | MIQGVIQKIAGPAVIAKGMLGARMYDICKVGEEGLVGEIIRLDGDTAFVQVYEDTSGLKVGEPVVSTGLPLAVELGPGMLNGIYDGIQRPLERIREKTGIYITRGVVVHALDREKKWAWTPMVKPGDEVRGGMVLGTVPEFGFTHKILVPPDVRGRVKEVKPAGEYTVEKPVVVLEDGTNLKMYHTWPVRRPRPVQRKLDPNTPFLTGMRILDVLFPVAMGGTAAIPGPFGSGKTVTQQSLAKWSNADVVVYVACGDRGNEMTDVLVEFPELTDPKTGGPLMRRTVLIANTSNMPVAAREASIYVGVTIAEYFRDQGFSVALMADSTSRWAEALREISSRLEEMPAEEGYPPYLAARLAAFYERAGKVITLGGEEGAVTIVGAVSPPGGDMSEPVTQSTLRIVGAFWRLDASLAFRRHFPAINWNGSYSLFTSALDPWYRENVAEDYPELRDAISELLQREAGLQEIVQLVGPDALQDAERLVIEVGRIIREDFLQQNAYHEVDAYCSMKKAYGIMKMILAFYKEAEAAIKRGVSIDEILQLPVLERIGRARYVSEEEFPAYFEEAMKEIQGAFKALA | soluble
6 | METIVQKFGGTSVGSVERIQHVANLIIEEYERGHSIVSVVSAMGKSTDELVALANAITENPSKREMDMLLSTGEQVTISLLTMALQAKGYHAISLTGWQAGITTESVHSSARITDIHTDRIQSYLAEGTIVIVAGFQGVSEDFEITTLGRGGSDTTAVALAAALKAKKCDIYTDVTGVYTTDPRVVKDAYKLDEISYDEMLELANLGAGVLHPRAVEFAKNHNVVLEVRSSMEQENGTIVKGECNMEQQSIVKGIAFEDNITRVTIKGLEQGSLSTVFSTLAAAHINVDIIIQSITNEGTVHLSFSIHSNDLRETLEVLEQNQEALHYEAVEYENHLAKVSIVGSGMVSNPGVAANMFTTLKEEDIHIKMVSTSEIKVSVVIDRLHLVTGVEALHQSFMAKIEPFVQMS | not soluble
7 | MGSSHHHHHHSSGLVPRGSMAGVDPFTGNSAYRSAASKTMNIYFPKKEAVTFDQANPTQILGKLKELNGTAPEEKKLTEDDLILLEKILSLICNSSSEKPTVQQLQILWKAINCPEDIVFPALDILRLSIKHPSVNENFCNEKEGAQFSSHLINLLNPKGKPANQLLALRTFCNCFVGQAGQKLMMSQRESLMSHAIELKSGSNKNIHIALATLALNYSVCFHKDHNIEGKAQCLSLISTILEVVQDLEATFRLLVALGTLISDDSNAVQLAKSLGVDSQIKKYSSVSEPAKVSECCRFILNLL | soluble
8 | MNGQNFNEMLHDEQVFAEFMVPNAHTTPNLWRIQQQNQENQIPQNFQHLDFQYFQYQNQKQEVVHGAHCMGTVGSSWNEQVAVKKPSSSQSRKGGKNKEEAREKNHQKNKALLEMLNQVDPAVIDAEIEEQKEKQRLRKNRGRYDPIGAHGAQQGTRGVQNEVQYHRNFQNNNNNNS | not soluble
9 | MPISYCVSAKKASVVVESVVGNFTGHENVNLIVARGNRIDVQLVSPEGLKNVCEIPIYGQVLTIALVKCKRDKRHSLIVVTEKWHMAILAYRDGKVVTRAAGCIADPTGRATDNLFSLTIHRNGLIAIRAFEGSVKMIQWESGTDLRHFNVRFDYPNVSDFKFVDTGEDDVYRVAFIYDDDHGKHLQFSDLNMHDKEFRTYSRQASIAADSSVLIPVPHAIGGVIVLGSNSVLYKPNDNLGEVVPYTCSLLENTTFTCHGIVDASGERFLLSDTDGRLLMLLLNVTESQSGYTVKEMRIDYLGETSIADSINYIDNGVVFVGSRLGDSQLIRLMTEPNGGSYSVILETYSNIGPIRDMVMVESDGQPQLVTCTGADKDGSLRVIRNGIGIDELASVDLAGVVGIFPIRLDSNADNYVIVSLSDETHVLQITGEELEDVKLLEINTDLPTIFASTLFGPNDSGIILQATEKQIRLMSSSGLSKFWEPTNGEIISKVSVNAANGQIVLAARDTVYLLTCIVDEMGALDIQLTAEKKFENEIACLDLSNEGDDPNNKATFLVLAFWSTFAMEVIQLPDLITVCHTDLPTKIIPRSIIATCIEEVHYLLVAFGDGALVYYVFDIKTGTHGEPKKSNVGTRPPSLHRVRNKNRQHLFVCSDRPVIIFSASKKLVFSNVNVKLVDTVCSLSSSAYRDCLVISDGNSMVFGTVDDIQKIHVRSIPMGESVLRIAYQKSTSTYGVCSNRTESKAERVFASKNALVTSQSRPKVASTRADMDESPPNTTSSFMVLDQNTFQVLHSHEFGPWETALSCISGQFTNDSSTYYVVGTGLIYPDETETKIGRIVVFEVDDVERSKLRRVHELVVRGSPLAIRILNGKLVAAINSSIRLFEWTTDKELRLECSSFNHVIALDLKVMNEEVAVADVMRSVSLLSYRMLEGNFEEVAKDWNSQWMVTCEFITAESILGGEAHLNLFTVEVDKTRPITDDGRYVLEPTGYWYLGELPKVMTRSTLVIQPEDSIIQYSQPIMFGTNQGTIGMIVQIDDKWKKFLIAIEKAIADSVKNCMHIEHSSYRTFVFQKRAEPPSGFVDGDLVESILDMDRSVAMDILSKVSDKGWDPSLPRDPVEILKVIEDLARMH | not soluble
10 | MAHHHHHHMANYQQQYTNAEYTLPNFFETASTVAKVLTPGGRTPTVLAVDVSGQPLLPPPPPESDFAVPEPGQLEKLLCAYVGPSHTLGLSPKQLFDEEIRARNLEMEERKKEMRAITEQYERELRECMMESEQRSVVEDARRAIDLADREALEERKRPLRMYLNHNIIPLLSKGLVEVCKRRPVDPVDFLAEWLMLHNPHDDSCFEL | not soluble
11 | MFDTKIAVILRDDLAVWQKLNVTAFLMSGIVAQTGEIIGEPYRDGAGNVYNPLSIQPIVVMATDQEALRKIHQRSLERDITTSLYIEEMFATGHDAANRQVFSHFSPDTAKVVGMALRADRKIVDKITKGAKLHA | soluble
12 | MTWNESHGERIIRRFERDIFPWIGSKPISEIAAPELLATVRRIESRGAVETAHRALGNCGQVFRYAIATARATRDISADLRGALPPVKGEHLEHHHHHH | not soluble
13 | MEVEYMNFNELNLSDNILNAIRNKGFEKPTDIQMKVIPLFLNDEYNIVAQARTGSGKTASFAIPLIELVNENNGIEAIILTPTRELAIQVADEIESLKGNKNLKIAKIYGGKAIYPQIKALKNANIVVGTPGRILDHINRGTLNLKNVKYFILDEADEMLNMGFIKDVEKILNACNKDKRILLFSATMPREILNLAKKYMGDYSFIKAKINANIEQSYVEVNENERFEALCRLLKNKEFYGLVFCKTKRDTKELASMLRDIGFKAGAIHGDLSQSQREKVIRLFKQKKIRILIATDVMSRGIDVNDLNCVINYHLPQNPESYMHRIGRTGRAGKKGKAISIINRREYKKLRYIERAMKLKIKKLKFG | soluble
14 | MLMSIREDVVEATSSIVPEKIHSDARNFSLVTSSSQVRSPLYLKSLDADGEDNSTVEKQITHSKKVADTELDRSLECLKENENDVKTNGEVELSAVEDALIQVVPEVSENQNPRKIGPYDFDQHANFLNS | not soluble
15 | MNTGHDGALAYDEPIYLSDGNIINIGEFVDKFFKKYKNSIKKEDNGFGWIDIGNENIYIKSFNKLSLIIEDKRILRVWRKKYSGKLIKITTKNRREITLTHDHPVYISKTGEVLEINAEMVKVGDYIYIPKNNTINLDEVIKVETVDYNGHIYDLTVEDNHTYIAGKNEGFAVSASSGTLHHHHHH | soluble
16 | MGSDKIHHHHHHMDRSYRTPKAWLTKTSGFLQGYDYSLNPYVGCTFACSYCYVRKMPVALFHKGEWGDWVDIKQGVKETFSNELVRAKKRGRVHLFMSSSTDPYQPVEVEEKVTRSLLEVMADNPPDFLFVQTRSPLVTRDVDILQQLGKRVRVSLTIETDLESVRKAFAPKAPPIQGRKRALHALYQAGIPTQLTVAPILPSSDRFAESYVSIADQVCIDTFELGDGANGKRSRALRMPERLTELGYESWYEEAALEKVHQQFCAHFDESRVKLSQEGFLP | not soluble
17 | MTADKLVFFVNGRKVVEKNADPETTLLAYLRRKLGLSGTKLGCGEGGCGACTVMLSKYDRLQNKIVHFSANACLAPICSLHHVAVTTVEGIGSTKTRLHPVQERIAKSHGSQCGFCTPGIVMSMYTLLRNQPEPTMEEIENAFQGNLCRCTGYRPILQGFRTFARDGGCCGGDGNNPNCCMNQKKDHSVSLSPSLFKPEEFTPLDPTQEPIFPPELLRLKDTPRKQLRFEGERVTWIQASTLKELLDLKAQHPDAKLVVGNTEIGIEMKFKNMLFPMIVCPAWIPELNSVEHGPDGISFGAACPLSIVEKTLVDAVAKLPAQKTEVFRGVLEQLRWFAGKQVKSVASVGGNIITASPISDLNPVFMASGAKLTLVSRGTRRTVQMDHTFFPGYRKTLLSPEEILLSIEIPYSREGEYFSAFKQASRREDDIAKVTSGMRVLFKPGTTEVQELALCYGGMANRTISALKTTQRQLSKLWKEELLQDVCAGLAEELHLPPDAPGGMVDFRCTLTLSFFFKFYLTVLQKLGQENLEDKCGKLDPTFASATLLFQKDPPADVQLFQEVPKGQSEEDMVGRPLPHLAADMQASGEAVYCDDIPRYENELSLRLVTSTRAHAKIKSIDTSEAKKVPGFVCFISADDVPGSNITGICNDETVFAKDKVTCVGHIIGAVVADTPEHTQRAAQGVKITYEELPAIITIEDAIKNNSFYGPELKIEKGDLKKGFSEADNVVSGEIYIGGQEHFYLETHCTIAVPKGEAGEMELFVSTQNTMKTQSFVAKMLGVPANRIVVRVKRMGGGFGGKVTRSTVVSTAVALAAYKTGRPVRCMLDRDEDMLITGGRHPFLARYKVGFMKTGTVVALEVDHFSNVGNTQDLSQSIMERALFHMDNCYKIPNIRGTGRLCKTNLPSNTAFRGFGGPQGMLIAECWMSEVAVTCGMPAEEVRRKNLYKEGDLTHFNQKLEGFTLPRCWEECLASSQYHARKSEVDKFNKENCWKKRGLCIIPTKFGISFTVPFLNQAGALLHVYTDGSVLLTHGGTEMGQGLHTKMVQVASRALKIPTSKIYISETSTNTVPNTSPTAASVSADLNGQAVYAACQTILKRLEPYKKKNPSGSWEDWVTAAYMDTVSLSATGFYRTPNLGYSFETNSGNPFHYFSYGVACSEVEIDCLTGDHKNLRTDIVMDVGSSLNPAIDIGQVEGAFVQGLGLFTLEELHYSPEGSLHTRGPSTYKIPAFGSIPIEFRVSLLRDCPNKKAIYASKAVGEPPLFLAASIFFAIKDAIRAARAQHTGNNVKELFRLDSPATPEKIRNACVDKFTTLCVTGVPENCKPWSVRV | soluble
